Laboratory results: the DeepSol protein solubility set

Assay: soluble on expression in E. coli; label from the status in PepcDB or PDB records

Sequence | soluble on expression in E. coli
MNFDEIDKTFGTKNRDQGYDLLKARLDKGDRSVEVLWRLAQVIHEKSACVPKAQRKASVTEGLKFAEEAVQKDPNHFKALKWNAVLTGQATEYMATKEKLECSKKFKELLDKTLAKEPKDTAVLHLRGRYKYSVASLTWLEKKLAATFYQQPPSHSYEEANEDFLAAYKVNPKWMENTFYVSKCYVAIKDKANARKYLTEVCDIEPYSDAEQEFADDAKQMLSKL | soluble
MNFGESYCSFHCSWCQPLLDSLSKESCWYLNFQSVDESQFYDETYFASPKNKTPRVSGKLKEKLLQFVKTPEDLDRPRKRAIIHICRRIKKITGQDIDPEYISKLLYGLKRARRDKFRKINREIFRGLNWDFTQFEKCTFKCVLN | not soluble
MNFTEMTSMEPIVTESRTPIPPVTDADRKAAFGNLQGHAIHDSAINYLVLLDQLEWQRSDNTNNFSWSVNSWIGGDTDRIWLKSEGERSNGETEAAEAQLLWGHAVGPWWDLVAGVRQDFRPASARTWAAVGFQGLALYNFESEITGFVSNGGKAALRLGGEYDVLLTNRLILQPSYEVNFYSQDDESRGRGRGLTDTELGLRLRYEIRREFAPYIGVSWNQLYGKTSDMAKREGEKDHQVVFLAGARIWFLEHHHHHH | not soluble
MNGAQWVVHALRAQGVKTVFGYPGGAIMPVYDALYDGGVEHLLCRHEQGAAMAAIGYARSTGKTGVCIATSGPGATNLITGLADALLDSVPVVAITGQVSAPFIGTDAFQEVDVLGLSLACTKHSFLVQSLEELPRIMAEAFEVANAGRPGPVLVDIPKDIQLASGELEPWFTTVANEATFPQADVEQARQMLEQAKKPMLYVGGGVGMAQAVPALRKFIAVTQMPVTCTLKGLGAVEADYPYYLGMLGMHGTKAANFAVQECDLLIAVGARFDDRVTGKLNTFAPNASVIHMDIDPAEMNKLRQAHVALQGDLNSLLPALQQPLKIDAWRQSCAELRAEHAWRYDHPGETIYAPLLLKQLSERKPADSVVTTDVGQHQMWSAQHMTYTRPENFITSSGLGTMGFGLPAAVGAQVARPNDTVICISGDGSFMMNVQELGTVKRKQLPLKIVLLDNQRLGMVRQWQQLFFQERYSETTLTDNPDFLMLASAFGIPGQHITRKDQVEAALDTMLASEGPYLLHVSIDELENVWPLVPPGASNSEMLEKLS | not soluble
MNGASRGDVQRPTPVQAPAKRPIPPTVFRFEKASKIGTSLDTTPKELPIRRPVPLPGPRFVKDVNPSPPATSSPNVQTQCHQPPVVRSQTHQASVSQTTPTQTTPSQYTPASVSTARAPQFHRSSHVTPSQQQRIEQAFGPAPVSQSQPQNGSYIQYNEPSTSVASTTTSFYSPNESEPVFTHAISFKPNEPENGQKAREQLELLDSGKINEINQSKVPTTIELPPNCKLFQYSWVLDGIPRTLLVPMPMDATEEDVKAMLPKTLEMDSNLFNNARPRDELPVLSFPNGTVPNVEMIGPKVQQPMLVNPKQFNRIMRRREMRQQLEASGRLPLARQKYLHESRHLHALKRKRGLDGRFDNTKTAESSSMVSSTTSPRKLKRRNRLPGEETSDSSSIVLPSPVEIQPKGGIVNSSMPSTSTGYINNGMDHQTDYIEHQQPMSTYDQYHDHVQYIAPDGNVNYHNNHDNGVDLTGSDGQSFTNL | soluble
MNHKALFSGKLVFIGFGSITRATLGLLGNVQRFDVSRIVVIAPGIKGSEPFVKSGVTFIDQALTSDTMESVLGSIVGQGDFIVNLSVNVCSADVIRFAYAHDALYLDTCIEPWGNTYNSPSLTASQRSNYALRDQLRTLGAELGPGPTAVVAHGANPGLISHFLKCALSALAEQLSVAVPRHQGGIDWGNLSMKLGVKVIHIAERDTQRSTRIKSDGEFVNTWSVDGFVSEAGQPAELGWGSHEKNWPPFARHHQFGSDNAIYLDRPGACVSVKTWTPNGGPCNAMLITHNEAISIPELLTVRNEGALSYRPTVHYAYHPCDDALLSINEYTGRGWHAQDRQRIMLDEITPGGIDALGVLIMGHKLNAYWYGSILNIDEARRLAPFNNATSLQVAAGVYSGIIWAIENPDRGIVEPEQMDHQRVMEIALPFLGKFGGVLTDWTPLKTGNALFRKPDADACPWQFEHFTAALEHHHHHH | not soluble
MNHQYQDLIDIFNQTFYADYNTKLELGGDEPIYLPADERVSYHRIIFARGFYASALHEIAHWCVAGPQRRLLEDFGYWYEPDGRTAQVQAEFEKVEIRPQAYEWILAISAGFPFTVSCDNLNGDFEPDRLAFMSKVHSEVLKILEQGLPQRVKMLSEALRAFYQTPALLPEHFVVK | not soluble
MNHYVYILECKDGSWYTGYTTDVDRRIKKHASGKGAKYTRGRGPFRLVATWAFPSKEEAMRWEYEVKHLSRRKKEQLVSLKGGPYENTTKLSTTMAGDPLEHHHHHH | soluble
MNIENPAPILDQDPYVQAYPETRAFWEAAAQGRFVLPRCRDCGQSHWYPRGLCPLCGSTALEWQDAAGTGTLYSYSVMRAAPQPYAIAYVQLAEGPLVLTNIVDSDLERLRIGQPVRVAFQRTQEGRSAPVFVALAD | not soluble
MNIKRNIIFALESRKKDGVLIVENVPIRMRVNFASQRIEFTTGYRIDVAKWDADKQRVKNGCTNKLKQSASEINAALLGYYTELQEVFKRFEVAEVMPSPADVKSAFNARHRSDDVQTEQTSDKPDASAEFYKAFDEFVRVCGRQNDWTHATYEKFAAVKNHLRSFRADLSFSFFNEVGLTEYVRYLREVRKMRNSTIGKQLSFLKWFLRWSFGQGIHSNNAYDTFRPKLKDTQKKIIFLTWEELTKLREFEIPPAKQSLDRVRDVFLFQCFTGLRYSDVYNLRRSDIKEDHIEVTTIKTSDSLVIELNKHSKAILEKYQDVVFEHDKALPVITNQKMNEYLKELAELAGINEPIRQTYYKGNERIDEVTPKYALLGTHAGRRTFICNALALGIPPQVVMKWTGHSDYKAMKPYIDIADDIKANAMSKFNQL | not soluble
MNILNIKEGQHYIAKIESHSFVDGEGVRCSVYVSGCPFQCKGCYNVKAQNFKYGEPFELEMLEEILDYCAPSYIEGLSILGGEPFCNLFITLQLVEAFRQRFGHTKTIWVWTGFLFEYLKQQDDARKSLLEHIDVLVDGMFIQHLYRPNLPYKGSLNQRVIDVQSSLQKEQVIEYLTKLEHHHHHH | not soluble
MNINEILKKLINKSDLEINEAEELAKAIIRGEVPEILVSAILVALRMKGESKNEIVGFARAMRELAIKIDVPNAIDTAGTGGDGLGTVNVSTASAILLSLVNPVAKHGNRAVSGKSGSADVLEALGYNIIVPPERAKELVNKTNFVFLFAQYYHPAMKNVANVRKTLGIRTIFNILGPLTNPANAKYQLMGVFSKDHLDLLSKSAYELDFNKIILVYGEPGIDEVSPIGNTFMKIVSKRGIEEVKLNVTDFGISPIPIEKLIVNSAEDSAIKIVRAFLGKDEHVAEFIKINTAVALFALDRVGDFREGYEYADHLIEKSLDKLNEIISMNGDVTKLKTIVVKSSG | soluble
MNIPQLTALCLRYHGVLLDASEEVVHVAVVDAPSHELLDALHFATTKRIEITCWTRQQMEGHASRTQQTLPVAVQEKHQPKAELLTRTLQSALEQRASDIHIEPADNAYRIRLRIDGVLHPLPDVSPDAGVALTARLKVLGNLDIAEHRLPQDGQFTVELAGNAVSFRIATLPCRGGEKVVLRLLQQVGQALDVNTLGMQPLQLADFAHALQQPQGLVLVTGPTGSGKTVTLYSALQKLNTADINICSVEDPVEIPIAGLNQTQIHPRAGLTFQGVLRALLRQDPDVIMIGEIRDGETAEIAIKAAQTGHLVLSTLHTNSTCETLVRLQQMGVARWMLSSALTLVIAQRLVRKLCPHCRRQQGEPIHIPDNVWPSPLPHWQAPGCVHCYHGFYGRTALFEVLPITPVIRQLISANTDVESLETHARQAGMRTLFENGCLAVEQGLTTFEELIRVLGMPHGE | soluble
MNIPTTTTKGEQAKSQLIAAALAQFGEYGLHATTRDIAALAGQNIAAITYYFGSKEDLYLACAQWIADFLGEKFRPHAEKAERLFSQPAPDRDAIRELILLACKNMIMLLTQEDTVNLSKFISREQLSPTSAYQLVHEQVIDPLHTHLTRLVAAYTGCDANDTRMILHTHALLGEVLAFRLGKETILLRTGWPQFDEEKAELIYQTVTCHIDLILHGLTQRSLD | soluble
